The values that follow come from the supplement of paper PMC12042874.

± gives the uncertainty stated by the source.

The nature of the series: amyloid nucleation score (Sup35N fusion, yeast selection) (log enrichment); library NNK2; higher = more nucleation; inactive = no reads after selection. In short, it runs like this: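 The nucleation score is a DiMSum log enrichment of output over input reads, centred on the mode score of non-aggregating sequences. Sequences under 100 input reads were excluded, and reads came from Illumina sequencing of plasmid inserts. Psi-negative yeast expressing Sup35N fused to peptides of 20 random codons were induced with 100 μM copper sulfate for 24 hours and grown 7 days at 30°C on medium lacking adenine and uracil. Random libraries had three technical output replicates.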
The substance PYTSSLLLQDRVLARGAYCR had an amyloid nucleation score of 1.25 ± 0.36.
Consider PYVHVYLWQSLKALVYLTCY, for which the amyloid nucleation score result was “inactive”.
Regarding PYVTFITLCSAFKYVYKCWY, the amyloid nucleation score worked out at 5.448 ± 0.047.
Regarding PYYCMSYLAPWCPDELRAS, the amyloid nucleation score result was “inactive”.
Regarding QAFVNFNIIYDV, the amyloid nucleation score turned out to be 5.959 ± 0.053.
QALQFIVSQRL gave an amyloid nucleation score of 3.59 ± 0.11.
The figure for QCDVSRGAFEGFPYVYMEMW is -1.4 ± 0.62; for QCGRKFFDNRGGGLITPHPV it is 0.107 ± 0.42.
The figure for QCQRLSWRCMWCGMSLYQYD is 3.98 ± 0.048; for QCTHPGLVVIYRSLAKDYLS it is -0.285 ± 0.48; for QCVTSCCSSHEWHSTRQMIF it is -0.502 ± 0.46.
Take QDMLWVPCNSGYRTQ: the amyloid nucleation score turned out to be 0.627 ± 0.47.
On to QELYSDLPRPSGSPLQLWAK, for which the amyloid nucleation score was -0.246 ± 0.76.
Under QFIEMEKIDVVFQEYIGEEG stands -0.265 ± 0.41; under QFLTLCSKSNVRTCYSHSCN, 2.75 ± 0.19.
Turning to QFRTICKLWA, the amyloid nucleation score is -0.099 ± 0.42.
Substance QFSLAVSTLSL gave an amyloid nucleation score of 1.48 ± 0.27.
QGDWVEGV: the amyloid nucleation score came to 0.144 ± 0.79.
For the substance QGFVPHRSIWHTSNLSDWFM, the amyloid nucleation score result was “inactive”.
In turn, QGGFMIFDRITGGLRVMNGL yielded an amyloid nucleation score of 0.263 ± 0.23.
The entry for QGILGSFIGKRCGFTRLKTL is “inactive”; for QHRFFQYYRS it is -1.5 ± 0.64.
For QHVFKVVSVALIMRCYDCGI, the amyloid nucleation score amounted to 1.64 ± 0.11.
In turn, QHYRSYTSILVCSYFYFDAQ came in with an amyloid nucleation score of 3.12 ± 0.12.
QICNARFLLLLRTQALEQCA came in with an amyloid nucleation score of 0.499 ± 0.56.
For the substance QIFKDSWSNIFRVYSCAVGM, the amyloid nucleation score was found to be 4.33 ± 0.062.
With QIKRQGHLESPSRQR, the amyloid nucleation score was 0.128 ± 0.37.
The figure for QIPCCWGPYVWSRAMGCSLE is 1.78 ± 0.15; for QIPNILVGNDMICVKKVLNW it is 2.97 ± 0.051.
Substance QKDLVSRGQYEVIVDSGTLG registered an amyloid nucleation score of 4.446 ± 0.035.
For the substance QKEENSWPGLIRCNLGVREG, the amyloid nucleation score is 0.092 ± 0.22.
QKHAYAWLTPF displayed an amyloid nucleation score of 1.54 ± 0.21.
Regarding QKNLEGLPEVEGNRRRCVVR, the amyloid nucleation score came out at 0.033 ± 0.52.
With QKRPVDIVPDHVWLWTR, the amyloid nucleation score is 0.114 ± 0.55.
QKYLYQGCHLI had an amyloid nucleation score of -1.24 ± 0.32.
In the case of QLDGWELATHRWCVILYVGC, the amyloid nucleation score was -0.471 ± 0.48.
As for QLFHAWTTWPSGDHNIAWRY, the amyloid nucleation score came to 3.3 ± 0.14.
The figure for QLFRCGRWGLLFSAAFFYLV is 0.264 ± 0.8.
For the substance QLGRYLCHTIFKHRLYICTW, the amyloid nucleation score came to 0.113 ± 1.1.
Take QLHLTEVLFQS: the amyloid nucleation score came to 0.154 ± 0.22.
As for QLIMS, the amyloid nucleation score result is “inactive”.
Under QLKYVSGNIYRLVVWVRGSP stands -0.926 ± 0.37; under QLQVSYYQRSGMFERFRLEW, 2.46 ± 0.18; under QLVLQVNRYVYRIMSTLTLS, 0.848 ± 0.52.
Under QNQVGIRGILHHMMNSLRTQ stands 3.87 ± 0.055.
QPILSNLLNHLYTNILSSTL displayed an amyloid nucleation score of -0.936 ± 0.64.
For QPISVMSNLSEIIWTYSMRA, the amyloid nucleation score was -0.002 ± 0.63.
As to QQMSIHRYADGVFELGIPVM, the amyloid nucleation score turned out to be 0.11 ± 0.54.
Regarding QRHAVWGSSGDLTYELIGSL, the amyloid nucleation score entry is “inactive”.
Substance QRIPWV yielded an amyloid nucleation score of -0.509 ± 1.1.
Under QRLYFMIMSQPAFGTFRGIY stands -0.95 ± 1.1; under QRYGVFAYGRLIRIHCRRLG, 0.159 ± 0.29; under QSGYVGNGVWVVTVVSKLMC, 6.796 ± 0.037.
QSHTGWYLVFV: the amyloid nucleation score turned out to be 0.05 ± 1.
The figure for QSHTYRL is 1.55 ± 0.25; for QSRCGYMGNRH it is 0.166 ± 0.76.
The figure for QSTMDCT is 0.082 ± 1.1; for QTGNFPIDHVQYCFFRITLS it is -1.28 ± 0.62.
Under QTLMLRSCYNWYPCGAAVVP stands 2.5 ± 0.093; under QTNCETCVFNNTFELMLHQS, 4.37 ± 0.087; under QTNST, 0.526 ± 0.57.
Regarding QTNTGIVESQRSVCLNKIAR, the amyloid nucleation score came to 0.234 ± 0.17.
Under QTVQVRPVRYGSQSFRNFGW stands -0.109 ± 0.49; under QVAKAYFEEGRRDDFSYHGK, 0.171 ± 0.56; under QVFAHIAVSYGLLFFLHWEC, -0.331 ± 1.
QVSSTST displayed an amyloid nucleation score of 0.592 ± 0.35.
For QVSYNLCNR, the amyloid nucleation score result is “inactive”.
QWCYSAVYSMLVSKRL: the amyloid nucleation score amounted to 2.68 ± 0.078.
In turn, QWTLVL displayed an amyloid nucleation score of -0.599 ± 0.55.
QWYPNFHFHAISLCKYTGQG had an amyloid nucleation score of 0.017 ± 0.19.
With QYHCPS, the amyloid nucleation score was -0.616 ± 0.5.
The figure for QYLVRYLYAITLK is -0.603 ± 1.
With QYSFKVDKTCRSVH, the amyloid nucleation score turned out to be 0.147 ± 0.76.
The figure for QYVMERYWRDWFKRMMLLFS is 0.584 ± 0.27; for QYVSMKMNLRTR it is -0.403 ± 1; for RAFIINWALFGTRH it is “inactive”.
As for RAMANHHDDWLVPGFQ, the amyloid nucleation score is -0.258 ± 0.45.
As to RAMLNLKE, the amyloid nucleation score worked out at 2.46 ± 0.053.
For the substance RAQYPFDSLSRGSGPVMWLS, the amyloid nucleation score stood at 1 ± 0.57.
RASVYCFLEHG returned an amyloid nucleation score of 3.42 ± 0.049.
Regarding RATKYFLSFCSLKFKFCHYF, the amyloid nucleation score was -0.658 ± 0.32.
Substance RAVRDLLVLNIINVAVTSIN gave an amyloid nucleation score of 7.495 ± 0.043.
In turn, RCCSVAYTIGLLTRRSLATG displayed an amyloid nucleation score of 0.451 ± 0.24.
The figure for RCEVAMDGVESVKSFPA is 0.697 ± 0.35; for RCFIDLPCCQYLVQPRVGSG it is -0.26 ± 1; for RCGVYRVTHSEAERSLSISL it is 0.698 ± 0.57.
Consider RCIIIAM, for which the amyloid nucleation score is 2.88 ± 0.12.
RCLGLCFICEYDFGVMRYSA: the amyloid nucleation score was -0.633 ± 0.48.
In turn, RCMLKSIRLLSSVGRLHYRW gave an amyloid nucleation score of 0.742 ± 0.48.
For RCNRSCN, the amyloid nucleation score entry was “inactive”.
Consider RCQLRALRCPFMSTVLRCSY, for which the amyloid nucleation score is 0.803 ± 0.28.
For the substance RCSVGVAWEVGKYVIKIRGF, the amyloid nucleation score was -1.08 ± 0.62.
The figure for RCVKNKLWTYMGGNISYTSS is 2.14 ± 0.1; for RCVWYSGSRLWTYWQVWLMG it is 0.458 ± 0.8.
For the substance RCWWAYQ, the amyloid nucleation score amounted to 1.11 ± 0.12.
On to RDHYCFYRYRKGEFNNTRHP, for which the amyloid nucleation score is -0.147 ± 0.39.
Turning to RDLSLNFIHPLRFGY, the amyloid nucleation score entry was “inactive”.
As for RDNYEGLY, the amyloid nucleation score is -1.05 ± 0.74.
Under RDYGQFCRSFGHLGLFLGSQ stands “inactive”; under RECQHF, -0.077 ± 0.74.
REDLLRNKTLL displayed an amyloid nucleation score of -0.858 ± 0.44.
Under RELRQPNK stands “inactive”.
Substance RENVVSGHDRNECAGLMSRG yielded an amyloid nucleation score of 0.343 ± 0.27.
Turning to RERLL, the amyloid nucleation score is -0.114 ± 0.51.
REVIRGLCMYKARWIRVGVG: the amyloid nucleation score stood at 0.947 ± 0.21.
REYASILMYRNCMCH came in with an amyloid nucleation score of 0.007 ± 0.5.
For RFCFVTIYSHRGVYANRMGM, the amyloid nucleation score came to 4.31 ± 0.075.
The figure for RFCRVDKWEVRQGM is 5.339 ± 0.051; for RFDDASGDMVNAEG it is 4.6 ± 0.05; for RFDQGVGTLWHVSLVTE it is -0.107 ± 1.
Regarding RFDSWVAWGFG, the amyloid nucleation score worked out at 1.74 ± 0.15.
Consider RFFHGYFCGIRCRCQAVCQL, for which the amyloid nucleation score entry is “inactive”.
RFFNPNMLKFALSGQ yielded an amyloid nucleation score of -1.37 ± 0.44.
For RFGLISANLLSLDY, the amyloid nucleation score is -0.938 ± 1.1.
The substance RFICYSHTFTGSMLSISIR gave an amyloid nucleation score of 8.061 ± 0.077.
RFKDCLIPQWLPGMIKNR gave an amyloid nucleation score of -0.444 ± 0.48.
For the substance RFKSIWAVNVIWNDYVADNG, the amyloid nucleation score was found to be 7.835 ± 0.077.
As to RFNFHTSD, the amyloid nucleation score is -0.959 ± 1.1.
As for RFPCRLLRASLFP, the amyloid nucleation score is -0.636 ± 0.45.
In turn, RFQFSICHYYDLNFS gave an amyloid nucleation score of 0.594 ± 0.66.
In the case of RFQVSLEILSIYRCRTTTD, the amyloid nucleation score worked out at 3.27 ± 0.15.
For the substance RFSLRRNCAMAQWLISATCS, the amyloid nucleation score amounted to 0.37 ± 0.3.
For RFSYGVEANVMSPINTFLQW, the amyloid nucleation score is 0.77 ± 0.23.
Turning to RFTNSESRNYRA, the amyloid nucleation score came out at 4.24 ± 0.069.
In turn, RFVFQIVSIYISWMVIDKTR returned an amyloid nucleation score of -0.436 ± 0.78.
The substance RFWLESIWLDNL gave an amyloid nucleation score of 0.25 ± 0.42.
RFYCRRT yielded an amyloid nucleation score of 0.199 ± 0.33.
The figure for RGCSESWLSW is 0.079 ± 0.34; for RGCSVSTDDSVIRLTIAWQY it is 0.33 ± 0.4; for RGFCN it is -1 ± 1.1.
Under RGKDEDMLKSECHYVL stands -0.883 ± 0.76; under RGLCVGSSARFCVY, 0.691 ± 0.6; under RGLRMYERGSVTWSFDFMEG, 5.44 ± 0.077.
In turn, RGMSAKSTERYVLGIGRAVS showed an amyloid nucleation score of 4.18 ± 0.11.
RGPTAHTFSARENP gave an amyloid nucleation score of -0.312 ± 0.45.
RGRCPCEVFNGSYVFVTHGD: the amyloid nucleation score entry was “inactive”.
RGSSLCYLRKGGFGWQGVVG gave an amyloid nucleation score of 0.733 ± 0.56.
Under RHGGQAAGRVEHVTSGCQRV stands 1.54 ± 0.47; under RHMLYVGMSHNPRLGPSSLG, 0.511 ± 0.38.
In the case of RHMWDHFCCFF, the amyloid nucleation score came out at 5.28 ± 0.094.
In the case of RHPMSKKTSYKWYVVLTQCR, the amyloid nucleation score stood at 0.554 ± 0.31.
